The record followed here is the MegaScale stability set (Tsuboyama et al. 2023).

B1: r11_951_TrROS_Hall (parent)
chain: KKKYVIKVYFEDTGKEVEIEAESKEEALEAAKRLAEELGLKIKKVEIYP

In the series the parent is B1. Nature of the series: folding stability dG (cDNA display proteolysis); higher = more stable. Particulars: PBS, room temperature.
On to KKKYVIKVYFSDTGKEVEIEAESKEEALEAAKRLAEELGLKIKKVEIYP [E11S], for which the “folding stability dG” value was 4.63 kcal/mol. As to KKKYVIKVYFPDTGKEVEIEAESKEEALEAAKRLAEELGLKIKKVEIYP [E11P], the “folding stability dG” value was 3.62 kcal/mol. In the case of KKKYVIKVYFYDTGKEVEIEAESKEEALEAAKRLAEELGLKIKKVEIYP [E11Y], the “folding stability dG” value was 4.83 kcal/mol.

As for KKKYVIKVYFQDTGKEVEIEAESKEEALEAAKRLAEELGLKIKKVEIYP [E11Q], the “folding stability dG” value stood at 4.79 kcal/mol. Regarding KKKYVIKVYFKDTGKEVEIEAESKEEALEAAKRLAEELGLKIKKVEIYP [E11K], the “folding stability dG” value worked out at 4.64 kcal/mol.

Take KKKYVIKVYFVDTGKEVEIEAESKEEALEAAKRLAEELGLKIKKVEIYP [E11V]: the “folding stability dG” value turned out to be 4.83 kcal/mol. Consider KKKYVIKVYFRDTGKEVEIEAESKEEALEAAKRLAEELGLKIKKVEIYP [E11R], for which the “folding stability dG” value is 4.82 kcal/mol. As for KKKYVIKVYFLDTGKEVEIEAESKEEALEAAKRLAEELGLKIKKVEIYP [E11L], the “folding stability dG” value is 4.92 kcal/mol. The value for KKKYVIKVYFMDTGKEVEIEAESKEEALEAAKRLAEELGLKIKKVEIYP [E11M] was 4.8 kcal/mol. On to KKKYVIKVYFNDTGKEVEIEAESKEEALEAAKRLAEELGLKIKKVEIYP [E11N], for which the “folding stability dG” value came to 4.67 kcal/mol.

Turning to KKKYVIKVYFTDTGKEVEIEAESKEEALEAAKRLAEELGLKIKKVEIYP [E11T], the “folding stability dG” value was 4.48 kcal/mol. Consider KKKYVIKVYFEDGGKEVEIEAESKEEALEAAKRLAEELGLKIKKVEIYP [T13G], for which the “folding stability dG” value was found to be 4.52 kcal/mol. In the case of KKKYVIKVYFEDKGKEVEIEAESKEEALEAAKRLAEELGLKIKKVEIYP [T13K], the “folding stability dG” value came to 4.48 kcal/mol.

On to KKKYVIKVYFEDWGKEVEIEAESKEEALEAAKRLAEELGLKIKKVEIYP [T13W], for which the “folding stability dG” value stood at 4.28 kcal/mol.

KKKYVIKVYFEDAGKEVEIEAESKEEALEAAKRLAEELGLKIKKVEIYP [T13A]: the “folding stability dG” value stood at 4.42 kcal/mol. Regarding KKKYVIKVYFEDMGKEVEIEAESKEEALEAAKRLAEELGLKIKKVEIYP [T13M], the “folding stability dG” value was determined as 4.35 kcal/mol. Regarding KKKYVIKVYFEDNGKEVEIEAESKEEALEAAKRLAEELGLKIKKVEIYP [T13N], the “folding stability dG” value turned out to be 4.58 kcal/mol. With KKKYVIKVYFEDDGKEVEIEAESKEEALEAAKRLAEELGLKIKKVEIYP [T13D], the “folding stability dG” value worked out at 4.11 kcal/mol. Take KKKYVIKVYFEDIGKEVEIEAESKEEALEAAKRLAEELGLKIKKVEIYP [T13I]: the “folding stability dG” value stood at 4.41 kcal/mol. As to KKKYVIKVYFEDPGKEVEIEAESKEEALEAAKRLAEELGLKIKKVEIYP [T13P], the “folding stability dG” value came out at 4.48 kcal/mol.

Consider KKKYVIKVYFEDVGKEVEIEAESKEEALEAAKRLAEELGLKIKKVEIYP [T13V], for which the “folding stability dG” value was 4.4 kcal/mol. Consider KKKYVIKVYFEDHGKEVEIEAESKEEALEAAKRLAEELGLKIKKVEIYP [T13H], for which the “folding stability dG” value was 4.33 kcal/mol.

Take KKKYVIKVYFEDCGKEVEIEAESKEEALEAAKRLAEELGLKIKKVEIYP [T13C]: the “folding stability dG” value was 3.6 kcal/mol.

For the variant KKKYVIKVYFEDYGKEVEIEAESKEEALEAAKRLAEELGLKIKKVEIYP [T13Y], the “folding stability dG” value stood at 4.47 kcal/mol.

Take KKKYVIKVYFEDFGKEVEIEAESKEEALEAAKRLAEELGLKIKKVEIYP [T13F]: the “folding stability dG” value was 4.36 kcal/mol. For KKKYVIKVYFEDLGKEVEIEAESKEEALEAAKRLAEELGLKIKKVEIYP [T13L], the “folding stability dG” value is 4.29 kcal/mol. Take KKKYVIKVYFEDQGKEVEIEAESKEEALEAAKRLAEELGLKIKKVEIYP [T13Q]: the “folding stability dG” value was 4.32 kcal/mol.

As for KKKYVIKVYFEDRGKEVEIEAESKEEALEAAKRLAEELGLKIKKVEIYP [T13R], the “folding stability dG” value was determined as 4.66 kcal/mol. Turning to KKKYVIKVYFEDSGKEVEIEAESKEEALEAAKRLAEELGLKIKKVEIYP [T13S], the “folding stability dG” value is 4.55 kcal/mol. Turning to KKKYVIKVYFEDEGKEVEIEAESKEEALEAAKRLAEELGLKIKKVEIYP [T13E], the “folding stability dG” value was found to be 4.4 kcal/mol. The value for KKKYVIKVYFEDTSKEVEIEAESKEEALEAAKRLAEELGLKIKKVEIYP [G14S] was 4.66 kcal/mol; that for KKKYVIKVYFEDTWKEVEIEAESKEEALEAAKRLAEELGLKIKKVEIYP [G14W] was 4.61 kcal/mol. With KKKYVIKVYFEDTVKEVEIEAESKEEALEAAKRLAEELGLKIKKVEIYP [G14V], the “folding stability dG” value is 4.62 kcal/mol. On to KKKYVIKVYFEDTYKEVEIEAESKEEALEAAKRLAEELGLKIKKVEIYP [G14Y], for which the “folding stability dG” value turned out to be 4.5 kcal/mol.

For the variant KKKYVIKVYFEDTAKEVEIEAESKEEALEAAKRLAEELGLKIKKVEIYP [G14A], the “folding stability dG” value was determined as 4.34 kcal/mol.

Consider KKKYVIKVYFEDTRKEVEIEAESKEEALEAAKRLAEELGLKIKKVEIYP [G14R], for which the “folding stability dG” value came to 4.05 kcal/mol. As to KKKYVIKVYFEDTNKEVEIEAESKEEALEAAKRLAEELGLKIKKVEIYP [G14N], the “folding stability dG” value was 4.43 kcal/mol. Take KKKYVIKVYFEDTFKEVEIEAESKEEALEAAKRLAEELGLKIKKVEIYP [G14F]: the “folding stability dG” value was 4.73 kcal/mol. As for KKKYVIKVYFEDTPKEVEIEAESKEEALEAAKRLAEELGLKIKKVEIYP [G14P], the “folding stability dG” value was 4.26 kcal/mol. As for KKKYVIKVYFEDTMKEVEIEAESKEEALEAAKRLAEELGLKIKKVEIYP [G14M], the “folding stability dG” value was 4.29 kcal/mol. Regarding KKKYVIKVYFEDTLKEVEIEAESKEEALEAAKRLAEELGLKIKKVEIYP [G14L], the “folding stability dG” value amounted to 4.25 kcal/mol. With KKKYVIKVYFEDTDKEVEIEAESKEEALEAAKRLAEELGLKIKKVEIYP [G14D], the “folding stability dG” value turned out to be 4.37 kcal/mol. As to KKKYVIKVYFEDTQKEVEIEAESKEEALEAAKRLAEELGLKIKKVEIYP [G14Q], the “folding stability dG” value was 4.39 kcal/mol.

For the variant KKKYVIKVYFEDTEKEVEIEAESKEEALEAAKRLAEELGLKIKKVEIYP [G14E], the “folding stability dG” value came out at 4.3 kcal/mol. For the variant KKKYVIKVYFEDTTKEVEIEAESKEEALEAAKRLAEELGLKIKKVEIYP [G14T], the “folding stability dG” value came to 4.41 kcal/mol. Take KKKYVIKVYFEDTKKEVEIEAESKEEALEAAKRLAEELGLKIKKVEIYP [G14K]: the “folding stability dG” value came out at 4.37 kcal/mol.

Turning to KKKYVIKVYFEDTIKEVEIEAESKEEALEAAKRLAEELGLKIKKVEIYP [G14I], the “folding stability dG” value worked out at 4.58 kcal/mol.

As for KKKYVIKVYFEDTHKEVEIEAESKEEALEAAKRLAEELGLKIKKVEIYP [G14H], the “folding stability dG” value was determined as 4.27 kcal/mol. Consider KKKYVIKVYFEDTCKEVEIEAESKEEALEAAKRLAEELGLKIKKVEIYP [G14C], for which the “folding stability dG” value was determined as 4.36 kcal/mol.

As for KKKYVIKVYFEDTGKMVEIEAESKEEALEAAKRLAEELGLKIKKVEIYP [E16M], the “folding stability dG” value is 4.28 kcal/mol. As to KKKYVIKVYFEDTGKTVEIEAESKEEALEAAKRLAEELGLKIKKVEIYP [E16T], the “folding stability dG” value stood at 4.45 kcal/mol. For the variant KKKYVIKVYFEDTGKWVEIEAESKEEALEAAKRLAEELGLKIKKVEIYP [E16W], the “folding stability dG” value was 4.48 kcal/mol. Take KKKYVIKVYFEDTGKYVEIEAESKEEALEAAKRLAEELGLKIKKVEIYP [E16Y]: the “folding stability dG” value was found to be 4.45 kcal/mol.
